From patent US20150037348A1 (AbbVie / Abbott, published 2015)
Substitutions are numbered along the chain they refer to. “And” between values parts separate entries of the source, which are not always exact repeats. Equal entries are not always repeated.

Experiments:
[1] = target: T1, recombinant human IL-12 (rhIL-12) (human, UniProt P29459 23-219; P29460 23-328); experiment: receptor binding assay, 125I-hIL-12 on PHA blasts
T1 construct: disulfide-linked p35/p40 heterodimer (p70); also called IL-12 p70; rec. human IL12
T1 sequence (looked up) 1: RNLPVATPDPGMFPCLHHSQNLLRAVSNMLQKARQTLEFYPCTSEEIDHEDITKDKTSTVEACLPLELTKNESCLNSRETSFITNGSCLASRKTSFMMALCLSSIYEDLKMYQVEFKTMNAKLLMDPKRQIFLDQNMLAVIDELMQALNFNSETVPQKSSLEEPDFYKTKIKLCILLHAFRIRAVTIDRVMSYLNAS
T1 sequence (looked up) 2: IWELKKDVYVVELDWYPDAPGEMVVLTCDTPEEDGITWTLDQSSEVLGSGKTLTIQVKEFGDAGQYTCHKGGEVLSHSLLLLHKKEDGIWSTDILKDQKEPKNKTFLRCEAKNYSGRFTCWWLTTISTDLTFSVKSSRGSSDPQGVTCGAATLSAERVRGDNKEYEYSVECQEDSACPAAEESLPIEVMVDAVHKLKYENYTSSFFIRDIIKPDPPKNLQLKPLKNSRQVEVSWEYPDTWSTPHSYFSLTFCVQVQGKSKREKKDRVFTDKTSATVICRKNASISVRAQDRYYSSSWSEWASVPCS
Method: PHA blast cells isolated as described above, were washed once and resuspended in binding buffer to a cell density of 2×10⁷ cells/ml. […] The cell pellet was examined for cell bound radioactivity using a gamma counter. […] Incubations were carried out in duplicate.
Incubations were carried out in duplicate.

recombinant rhesus IL-12 = target: T2, recombinant rhesus IL-12 (rhesus monkey, UniProt P48091 23-219; P48095 23-328); experiment: cell-based or functional assay
T2 sequence (looked up) 1: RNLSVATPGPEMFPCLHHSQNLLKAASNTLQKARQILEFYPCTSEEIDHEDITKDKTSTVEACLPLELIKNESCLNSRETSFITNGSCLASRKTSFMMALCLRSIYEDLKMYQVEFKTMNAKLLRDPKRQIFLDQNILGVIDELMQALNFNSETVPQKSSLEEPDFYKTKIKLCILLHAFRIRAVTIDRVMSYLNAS
T2 sequence (looked up) 2: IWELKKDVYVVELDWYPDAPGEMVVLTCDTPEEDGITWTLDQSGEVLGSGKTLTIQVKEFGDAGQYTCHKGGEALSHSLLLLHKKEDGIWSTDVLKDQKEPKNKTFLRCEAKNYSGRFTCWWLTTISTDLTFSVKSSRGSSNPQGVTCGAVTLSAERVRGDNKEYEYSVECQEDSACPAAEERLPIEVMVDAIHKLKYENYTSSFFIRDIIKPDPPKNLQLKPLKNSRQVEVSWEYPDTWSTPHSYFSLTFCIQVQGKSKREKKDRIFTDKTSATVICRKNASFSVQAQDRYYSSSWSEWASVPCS

[2] = target: T3, baboon IL-12 (PBMC supernatant) (baboon); experiment: cell-based or functional assay
T3 chain 1: T2 sequence (looked up) 2 with V230A
T3 chain 2: T2 sequence (looked up) 1 with F82V, N85K, K110Q, M111I, R125M, K172R

[3] = target: T1, recombinant human IL-12 (rhIL-12); experiment: cell-based or functional assay
[4] = target: T4, dog IL-12 (PBMC supernatant) (dog, UniProt Q28267 26-222; Q28268 23-329); experiment: cell-based or functional assay
T4 sequence (looked up) 1: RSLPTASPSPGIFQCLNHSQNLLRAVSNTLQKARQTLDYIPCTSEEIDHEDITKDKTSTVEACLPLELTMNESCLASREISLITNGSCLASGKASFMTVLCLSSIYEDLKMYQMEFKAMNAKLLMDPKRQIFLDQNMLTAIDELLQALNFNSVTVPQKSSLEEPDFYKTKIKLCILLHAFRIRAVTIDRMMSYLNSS
T4 sequence (looked up) 2: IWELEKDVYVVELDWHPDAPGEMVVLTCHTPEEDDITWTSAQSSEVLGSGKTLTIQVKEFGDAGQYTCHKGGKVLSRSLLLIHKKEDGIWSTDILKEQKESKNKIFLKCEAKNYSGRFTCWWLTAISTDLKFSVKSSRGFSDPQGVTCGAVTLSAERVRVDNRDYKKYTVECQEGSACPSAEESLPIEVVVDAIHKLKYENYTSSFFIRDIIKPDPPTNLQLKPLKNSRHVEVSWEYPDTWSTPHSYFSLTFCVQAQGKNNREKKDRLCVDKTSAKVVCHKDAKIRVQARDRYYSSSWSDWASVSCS

[5] = target: T5, cynomolgus IL-12 (PBMC supernatant) (cynomolgus monkey); experiment: cell-based or functional assay
T5 chain 1: T2 sequence (looked up) 1
T5 chain 2: T2 sequence (looked up) 2

[6] = target: T1, recombinant human IL-12 (rhIL-12); experiment: biomolecular interaction assay (BIAcore)
Method: Three independent experiments were performed, and the values shown are averages for the three experiments. From these measurements, the apparent dissociation (kd) and association (kₐ) rate constants were derived and used to calculate a Kd value for the interaction (see Table 10).

[7] = target: T1, recombinant human IL-12 (rhIL-12); experiment: cell-based or functional assay; remark: listed apart in the source

B1: J695 (antibody, human IgG1, V domains shown)
VH: QVQLVESGGGVVQPGRSLRLSCAASGFTFSSYGMHWVRQAPGKGLEWVAFIRYDGSNKYYADSVKGRFTISRDNSKNTLYLQMNSLRAEDTAVYYCKTHGSHDNWGQGTMVTVSS
VL: QSVLTQPPSVSGAPGQRVTISCSGSRSNIGSNTVKWYQQLPGTAPKLLIYYNDQRPSGVPDRFSGSKSGTSASLAITGLQAEDEADYYCQSYDRYTHPALLFGTGTKVTVLG
notes: human IgG1 with lambda light chain
In the case of B1, the IC50 [1] is reported as 0.034 nM and 0.03 nM, the “IC50 (M), bioassay, Rhesus IL-12 Purified” value (recombinant rhesus IL-12) is reported as 1e-11 M and the “IC50 (M), bioassay, Baboon IL-12 PBMC sup” value [2] is reported as 1.5e-11 M. The “IC50 (M), bioassay, Human IL-12 Purified” value [3] was 5e-12 M, the “IC50 (M), bioassay, Dog IL-12 PBMC sup” value [4] was 3.5e-10 M and the “IC50 (M), bioassay, Cyno IL-12 PBMC sup” value [5] was 1e-11 M. For the same binder, the Kd [6] was 0.0974 nM, the “PHA assay IC50 (M) p70:p40 1:0” value [7] was 1e-11 M and the “PHA assay IC50 (M) p70:p40 1:50” value [7] was 3.5e-11 M.
